Assay results as given in patent publication US11156615B2 (priority 2015, dated 2021).
Positions count from the first letter of the chain named. Names may count otherwise.

Assays:
[1] = Thermostability: mid-point thermal denaturation temperature (Tm) from temperature-dependent fluorescence (Roche LightCycler); format: physicochemical; details: for apoTm: apo-protein
Source text: Protein (un)folding is monitored by binding of SYPRO to the unfolded state as a function of temperature. Fluorescence intensity increases upon binding of SYPRO by the unfolded state.
Panels A-C: ttGBP182C.2.0-Imm0; Panels D-F: ttGBP182C.2.0-Imm1 (see FIG. 13). (A) Solution (Tm=347.6K). (B) Immobilized on Nickel-nitriloacetic acid (Ni-NTA) beads (Tm=346.7K). (C) Reconstituted, desiccated Ni-NTA beads (Tm=347.6K). (D) Fluorescence response of ttGGBP5.2 Imm1 immobilized on NHS-functionalized agarose beads. Data was collected on a Roche LightCycler real-time PCS instrument, recording emission intensities at 488 nm and 510 nm as a function of temperature in a 384-well microtiter plate. […] Temperature melts of twelve different wells. Apo protein thermostability as reported by the denaturation mid-point temperature is 349 K, similar to the protein free in solution. […] (F) Representative Langmuir ligand-binding curve extracted from the three-dimensional data.
Temperatures were advanced in 1K steps. […] Under these experimental photobleaching was not observed.

[2] = Glucose binding: isothermal fluorescence titrations, ratiometric (appKd) and monochromatic (trueKd) fits; design: key to Glucose appKd / Glucose trueKd: nb, no bonding
Source text: 2 For a single glucose-binding site, the fractional saturation is given by
[formula] where ^apoIλ2 and ^satIλ2 are the emission intensities of the monochromatic signal at wavelength λ2 of the ligand-free and ligand-bound protein, respectively.

[3] = Galactose binding: isothermal fluorescence titrations of conjugates; design: key to Galactose trueKd: nb, no bonding; details: for Kd: read-out: Galactose trueKd; for Kd / S, selectivity = trueKd(galactose)/trueKd(glucose): Acrylodan conjugate; for Kd / Galactose trueKd: monochromatic titration curves, room temperature; for S, selectivity = trueKd(galactose)/trueKd(glucose): S > 1, selective for glucose; for Galactose trueKd: Badan conjugate
[4] = read-out: Glucose appKd, Acrylodan conjugate, dichromatic ratiometry, room temperature
[5] = read-out: Glucose trueKd, Acrylodan conjugate, monochromatic titration curves, room temperature

For “ecGGBP: glucose-galactose binding protein from Escherichia coli, SEQ ID NO: 1 [reference compound]”, the “mid-point thermal denaturation temperature (Tm)” value ([1]; GGBP homologs) was 322 K.

B1: ttGGBP182C.2.0⋅Acrylodan: Acrylodan conjugate of ttGGBP W182C with Q148E+R91K double mutation (SEQ ID NO: 88) (conjugate)
chain: MKQLNIGVAIYKFDDTFMTGVRNAMTAEAQGKAKLNMVDSQNSQPTQNDQVDLFITKKMNALAINPVDRTAAGTIIDKAKQANIPVVFFNKEPLPEDMKKWDKVYYVGAKAEQSGILQGQIMADYWKAHPEADKNHDGVMQYVMLMGEPGHQDAILRTQYSIQTVKDAGIKVQELAKDYANCDRVTAHDKMAAWLSSFGDKIEAVFANNDDMALGAIEALKSAGYFTGNKYIPVVGVDATAPGIQAIKDGTLLGTVLNDAKNQAKATFNIAYELAQGITPTKDNIGYDITDGKYVWIPYKKITKDNISDAEQGGSHHHHHH
modifications: Acrylodan conjugate; ttGGBP182C.2.0 (affinity-tuning mutant, 182C background (Table 6) with signal peptide replaced with M and GGSHHHHHH at C-terminus)
In the case of B1, the Kd ([2]; glucose, fit of ratiometric emission signal (figure legends), read-out: appKd) is reported as 4.5 mM, the Kd ([2]; glucose, monochromatic fits at 475 nm and 545 nm (FIG. 11), read-out: trueKd) is reported as 6 mM and the “decrease in glucose affinity” value ([2]; in ttGGBP182C⋅Acrylodan) is reported as 2.6 fold.

B2: ttGGBP182C: ttGGBP cys mutant, SEQ ID NO: 61 (protein)
chain: B1 chain with K91R, E148Q
modifications: ttGGBP182C (ttGGBP cys mutant with signal peptide replaced with M and GGSHHHHHH at C-terminus)
In the case of B2, the Kd [3] is reported as 3.3 mM and the apoTm ([1]; Acrylodan conjugate) is reported as 347 K.

B3: ttGGBP182C.2.5: affinity-tuning mutant, 182C background, SEQ ID NO: 92 (protein)
chain: B1 chain with H151Q
modifications: ttGGBP182C.2.5 (affinity-tuning mutant, 182C background (Table 6) with signal peptide replaced with M and GGSHHHHHH at C-terminus)
In the case of B3, the “S, selectivity = trueKd(galactose)/trueKd(glucose)” value [3] is reported as 1.6, the Kd [3] is reported as 20.3 mM and the apoTm ([1]; Acrylodan conjugate) is reported as 346 K. It also gave a Kd [2, 4] of 10.8 mM and a Kd [2, 5] of 13 mM.

B4: ttGGBP182C.7: affinity-tuning mutant, 182C background, SEQ ID NO: 101 (protein)
chain: B1 chain with E148S
modifications: ttGGBP182C.7 (affinity-tuning mutant, 182C background (Table 6) with signal peptide replaced with M and GGSHHHHHH at C-terminus)
Work on B4 yielded a Kd [3] of 1.1 mM and an apoTm ([1]; Acrylodan conjugate) of 346 K.

B5: ttGGBP182C.2.3: affinity-tuning mutant, 182C background, SEQ ID NO: 90 (protein)
chain: B1 chain with A154N
modifications: ttGGBP182C.2.3 (affinity-tuning mutant, 182C background (Table 6) with signal peptide replaced with M and GGSHHHHHH at C-terminus)
For B5, the “S, selectivity = trueKd(galactose)/trueKd(glucose)” value [3] was 10.9, the apoTm ([1]; Acrylodan conjugate) was 346 K and the Kd [2, 4] was 16.3 mM. The Kd [2, 5] was 19 mM.

B6: ttGGBP182C.2.6: affinity-tuning mutant, 182C background, SEQ ID NO: 93 (protein)
chain: B1 chain with H151N
modifications: ttGGBP182C.2.6 (affinity-tuning mutant, 182C background (Table 6) with signal peptide replaced with M and GGSHHHHHH at C-terminus)
For B6, the “S, selectivity = trueKd(galactose)/trueKd(glucose)” value [3] was 2.9, the Kd [3] was 52.6 mM and the apoTm ([1]; Acrylodan conjugate) was 347 K. For the same molecule, the Kd [2, 4] was 19.2 mM and the Kd [2, 5] was 17.9 mM.

B7: ttGGBP182C.2.0: affinity-tuning mutant, 182C background (R91K, Q148E), SEQ ID NO: 88 and 298 (protein)
chain: B1 chain
modifications: ttGGBP182C.2.0 (affinity-tuning mutant, 182C background (Table 6) with signal peptide replaced with M and GGSHHHHHH at C-terminus)
For B7, the “S, selectivity = trueKd(galactose)/trueKd(glucose)” value [3] was 3.1, the Kd [3] was 18.5 mM and the apoTm ([1]; Acrylodan conjugate) was 346 K. It also gave a Kd [2, 4] of 4.5 mM and a Kd [2, 5] of 6 mM.

B8: ttGGBP17C.21: affinity-tuning mutant, 17C background, SEQ ID NO: 79 (protein)
chain: B1 chain with F17C, K91R, E148Q, C182W, N258A
modifications: ttGGBP17C.21 (affinity-tuning mutant, 17C background (Table 6) with signal peptide replaced with M and GGSHHHHHH at C-terminus)
For B8, the “Galactose trueKd” value [3] was “nb”, the apoTm ([1]; Badan conjugate) was 345 K and the Kd ([2]; read-out: Glucose appKd, Badan conjugate, dichromatic ratiometry, room temperature) was 61 mM. For the same molecule, the Kd ([2]; read-out: Glucose trueKd, Badan conjugate, monochromatic titration curves, room temperature) was 69 mM.

B9: ttGGBP17C.19: affinity-tuning mutant, 17C background, SEQ ID NO: 77 (protein)
chain: B1 chain with F17C, K91R, E148Q, C182W, N258D
modifications: ttGGBP17C.19 (affinity-tuning mutant, 17C background (Table 6) with signal peptide replaced with M and GGSHHHHHH at C-terminus)
In the case of B9, the “Galactose trueKd” value [3] is reported as “nb^e”, the apoTm ([1]; Badan conjugate) is reported as 344 K and the “Glucose appKd” value ([2]; Badan conjugate, dichromatic ratiometry, room temperature) is reported as “nb^e”. The “Glucose trueKd” value ([2]; Badan conjugate, monochromatic titration curves, room temperature) was “nb^e”.

B10: ttGGBP182C.2.8: affinity-tuning mutant, 182C background, SEQ ID NO: 95 (protein)
chain: B1 chain with D15N
modifications: ttGGBP182C.2.8 (affinity-tuning mutant, 182C background (Table 6) with signal peptide replaced with M and GGSHHHHHH at C-terminus)
In the case of B10, the “S, selectivity = trueKd(galactose)/trueKd(glucose)” value [3] is reported as 1.8 and the apoTm ([1]; Acrylodan conjugate) is reported as 343 K.

B11: ttGGBP182C.2.9: affinity-tuning mutant, 182C background, SEQ ID NO: 96 (protein)
chain: B1 chain with A154F
modifications: ttGGBP182C.2.9 (affinity-tuning mutant, 182C background (Table 6) with signal peptide replaced with M and GGSHHHHHH at C-terminus)
Work on B11 yielded an apoTm ([1]; Acrylodan conjugate) of 345 K.

B12: ttGGBP182C.2.7: affinity-tuning mutant, 182C background, SEQ ID NO: 94 (protein)
chain: B1 chain with H151F
modifications: ttGGBP182C.2.7 (affinity-tuning mutant, 182C background (Table 6) with signal peptide replaced with M and GGSHHHHHH at C-terminus)
In the case of B12, the apoTm ([1]; Acrylodan conjugate) is reported as 346 K.

B13: ttGGBP182C.2.1: affinity-tuning mutant, 182C background, SEQ ID NO: 89 (protein)
chain: B1 chain with A154S
modifications: ttGGBP182C.2.1 (affinity-tuning mutant, 182C background (Table 6) with signal peptide replaced with M and GGSHHHHHH at C-terminus)
In the case of B13, the “S, selectivity = trueKd(galactose)/trueKd(glucose)” value [3] is reported as 3.2, the Kd [3] is reported as 13.1 mM and the apoTm ([1]; Acrylodan conjugate) is reported as 328 K. For the same molecule, the Kd [2, 4] was 3 mM and the Kd [2, 5] was 4.1 mM.

B14: ttGGBP182C.2.4: affinity-tuning mutant, 182C background, SEQ ID NO: 91 (protein)
chain: B1 chain with A154M
modifications: ttGGBP182C.2.4 (affinity-tuning mutant, 182C background (Table 6) with signal peptide replaced with M and GGSHHHHHH at C-terminus)
Work on B14 yielded a Kd [3] of 4.5 mM and an apoTm ([1]; Acrylodan conjugate) of 346 K.
